Earlier results as cited in PMC3674867.

Biological target: caspase-3 (Homo sapiens) (UniProt P42574)
Assay: solid phase binding assay

Sequence of UniProt P42574 (P42574 176-277): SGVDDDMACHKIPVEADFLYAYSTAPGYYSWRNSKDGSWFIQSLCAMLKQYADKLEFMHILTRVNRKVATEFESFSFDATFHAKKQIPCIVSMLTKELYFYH

In the case of PAI-1 (from UniProt P05121), the Kd is given as 3 nM.
